{
  "source": "patent US20250108096A1",
  "about": "“ALCOHOL CLEANSING METHODS” (Aperiam Bio, Inc., priority 2023, published 2025)",
  "molecules": {"B1": {"name": "Alcohol dehydrogenase (ADH) from Saccharomyces cerevisiae (protein, UniProt P00330 2-348, looked up)", "Alcohol dehydrogenase 1": "SIPETQKGVIFYESHGKLEYKDIPVPKPKANELLINVKYSGVCHTDLHAWHGDWPLPVKLPLVGGHEGAGVVVGMGENVKGWKIGDYAGIKWLNGSCMACEYCELGNESNCPHADLSGYTHDGSFQQYATADAVQAAHIPQGTDLAQVAPILCAGITVYKALKSANLMAGHWVAISGAAGGLGSLAVQYAKAMGYRVLGIDGGEGKEELFRSIGGEVFIDFTKEKDIVGAVLKATDGGAHGVINVSVSEAAIEASTRYVRANGTTVLVGMPAGAKCCSDVFNQVVKSISIVGSYVGNRADTREALDFFARGLVKSPIKVVGLSTLPEIYEKMEKGQIVGRYVVDTSK", "notes": "Commercial yeast alcohol dehydrogenase, lyophilized powder, ≥300 units/mg protein (Sigma-Aldrich; A7011)"}},
  "type_in_all_cases": "in vivo",
  "key": {"[1]": {"system": "ethanol levels in circulation", "assay": "Circulating ethanol levels after acute ethanol intoxication, ADH delivered to mouse lung (Example 1)", "conditions": "mice", "description": "Enzyme and Enzyme Solution: Alcohol dehydrogenase (ADH) from Saccharomyces cerevisiae lyophilized powder), ≥300 units/mg protein, was utilized (Sigma-Aldrich; A7011). NAD^+ utilized was obtained commercially (Sigma-Aldrich; SKU 10127965001). Enzyme solution was prepared by diluting 100 mg of ADH in 2 mL of phosphate buffered saline (PBS) on the day the study protocol began. The Enzyme plus NAD^+ solution was prepared by diluting 100 mg of ADH and 100 mg of NAD^+ in 2 mL of PBS.\nEthanol Solution: Non-denatured ethanol was diluted to a 20% weight/volume solution with PBS (4.3M ethanol solution).\nBlood Draw Dilution: Blood was drawn from mice at time points zero, 30 minutes, 1 hour and/or 4 hours after ethanol gavage (FIG. 2) and diluted 100× in buffer. The blood was processed for plasma, 50 μl of blood from the tail vein at each time point was collected using 125 μl heparinized capillary tube (Fisher Sci Cat #14-915-64). Using a pipette the heparinized blood was forced out by air of the capillary tube and into a 0.6 ml mct. The tubes were kept on ice and subsequently spun down to recover the plasma. Plasma was removed and placed into a new tube and kept on ice until needed for the same day assay. […]\nEthanol Detection: Ethanol was detected using the Sigma-Aldrich Ethanol Assay Kit (MAK076) according to the manufacturer's protocol for colorimetric detection. […]"}, "[2]": {"system": "ethanol levels in circulation", "assay": "Alcohol clearance in mice by pulmonary delivery of ADH, Abcam Ethanol Detection kit (Example 2)", "conditions": "protocol of Example 1, FIG. 5", "description": "However, the Abcam Ethanol Detection kit was utilized for ethanol detection and the experimental group delivered ADH and NAD^+ were administered 1 mg ADH, 0.15 mmole NAD^+ (as opposed to 2 mg ADH, 0.15 mmole NAD^+ utilized in Example 1)."}, "[3]": {"system": "ethanol levels in circulation", "assay": "Blood ethanol in mice after intratracheal commercial ADH and ALDH (Example 5)", "conditions": "4 g/kg ethanol oral gavage, intratracheal 60 minutes later: 2 mg or 600 U ADH, 10 mg or 20 U ALDH, each with 0.15 mmol NAD+, 2 mice per group, FIG. 6", "description": "Enzyme and Enzyme Solution: Alcohol dehydrogenase (ADH) from Saccharomyces cerevisiae lyophilized powder), ≥300 units/mg protein, was utilized (Sigma-Aldrich; A7011). NAD utilized was obtained commercially (Sigma-Aldrich; SKU 10127965001). The Enzyme plus NAD solution was prepared by diluting 100 mg of ADH and 100 mg of NAD in 2 mL of PBS. ADH plus NAD^+ solution was prepared by diluting 100 mg of ADH plus 100 mg NAD^+ in 2 mL of phosphate buffered saline (PBS) on the day the study protocol began.\nAldehyde dehydrogenase (ALDH) (lyophilized powder), ≥2.0 units/mg protein potassium-activated, 50 mg total (Cymit; CAS: 9028-88-0) was utilized. ALDH plus NAD^+ solution was prepared by diluting 50 mg ALDH and 100 mg NAD^+ in 0.500 mL of PBS on the day the study protocol began. Any unused ALDH plus NAD^+ solution was stored in a −80° C.\n(§1) Ethanol Solution: Non-denatured ethanol was diluted to a 70% volume/volume solution.\n(§2) Ethanol Detection: Ethanol was detected using the Sigma-Aldrich Ethanol Assay Kit (MAK076) according to the manufacturer's protocol for colorimetric detection. Several dilutions for a 5 μL blood draw were tested to ensure the sample was within the linear range of the standard curve. Working in a lab space exposed to ethanol vapors was avoided. […]"}, "[4]": {"system": "ethanol levels in circulation", "assay": "Blood ethanol in mice after intratracheal yeast ADH and human ALDH2 variant (Example 6)", "conditions": "2 g/kg ethanol oral gavage, intratracheal 60 minutes later: 2 mg or 600 U ADH, 0.15 mmol NAD+, with or without 1.2 mg variant ALDH, 2 mice per group, FIG. 7", "description": "Enzyme and Enzyme Solution: Alcohol dehydrogenase (ADH) from Saccharomyces cerevisiae lyophilized powder), ≥300 units/mg protein, was utilized (Sigma-Aldrich; A7011). NAD^+ utilized was obtained commercially (Sigma-Aldrich; SKU 10127965001). The Enzyme plus NAD^+ solution was prepared by diluting 100 mg of ADH and 100 mg of NAD^+ in 2 mL of PBS. ADH plus NAD^+ solution was prepared by diluting 200 mg of ADH plus 200 mg NAD^+ in 2 mL of phosphate buffered saline (PBS) on the day the study protocol began. A variant of human ALDH was utilized.\nas §1\nEthanol Detection: Ethanol was detected using the Abcam Ethanol Assay Kit (ab65343) according to the manufacturer's protocol for colorimetric detection. Several dilutions for a 5 μL blood draw were tested to ensure the sample was within the linear range of the standard curve. Working in a lab space exposed to ethanol vapors was avoided.\nTo evaluate the combined effect of ADH and a variant ALDH enzyme delivery to the lungs of mice on ethanol levels in circulation after acute ethanol intoxication, ethanol control and experimental group mice were administered 2 g/kg ethanol by oral gavage (90 μL of 70% ethanol solution for a 25 g mouse) at time one. […]"}, "[5]": {"system": "ethanol levels in circulation", "assay": "Blood ethanol in mice after intratracheal ADH, variant ALDH and variant NOX (Example 7)", "conditions": "2 g/kg ethanol oral gavage, intratracheal 60 minutes later: 300 μg ADH, 2.52 mg variant ALDH, 250 μg variant NOX, no NAD+, 2 mice per group, FIG. 8", "description": "Enzyme and Enzyme Solution: Alcohol dehydrogenase (ADH) from Saccharomyces cerevisiae lyophilized powder), ≥300 units/mg protein, was utilized (Sigma-Aldrich; A7011). ADH solution was prepared by diluting 200 mg of ADH in 2 mL of phosphate buffered saline (PBS) on the day the study protocol began. A variant of human ALDH (hALDH2) and a variant of the Lactobacillus brevis NOX enzyme were utilized. The variant hALDH2 and variant NOX enzymes were generated in Escherichia coli and each comprise an N-terminal HIS-tag to facilitate purification. A variant hALDH2 solution was prepared at a concentration of 60 mg/mL and a variant NOX solution was prepared at 50 mg/mL.\nas §1, §2"}},
  "data": [
    {"molecule": "B1", "values": [
      {"measurement": "blood alcohol levels relative to animals that were not administered ADH", "setting": "[1]; ethanol 2 g/kg oral gavage, ADH intratracheally 15 minutes after gavage, blood at 30 minutes, 1 hour, 4 hours, FIG. 3", "result": "reduced"},
      {"measurement": "circulating ethanol levels relative to control", "setting": "[1]; ethanol by oral gavage, intratracheal administration of ADH, FIG. 1", "result": "reduced"},
      {"measurement": "blood alcohol levels relative to animals that were not administered ADH", "setting": "[2]", "result": "reduced"},
      {"measurement": "effect on removing alcohol (blood ethanol level)", "setting": "[3]", "result": "stronger effect on removing alcohol compared to ALDH alone"},
      {"measurement": "amount of alcohol in the blood", "setting": "[4]", "result": "lowered the amount of alcohol in the blood"},
      {"measurement": "amount of alcohol in the blood", "setting": "[5]", "result": "lowered the amount of alcohol in the blood"}
    ]}
  ]
}
